Experimental data as given in US20070004636A1, “Method of degrading transcriptional factors of saccharometabolism-associated gene, method for inhibiting the degradation, and agent for inhibiting degradation and degradation inhibitor” (priority 2002, published 2007).

Tests used:
human HNF-4α = biological target: T1, human HNF-4α (Homo sapiens, UniProt P41235); experiment: binding test by intracellular coexpression/immunoprecipitation in HEK293T cells; format: cell-based; settings: FLAG-tagged m-calpain coexpressed with Xpress-tagged HNF-4α in HEK293T cells
T1 construct: expressed in transfected cells; host or cells: HEK293T
T1 sequence (P41235 10-474): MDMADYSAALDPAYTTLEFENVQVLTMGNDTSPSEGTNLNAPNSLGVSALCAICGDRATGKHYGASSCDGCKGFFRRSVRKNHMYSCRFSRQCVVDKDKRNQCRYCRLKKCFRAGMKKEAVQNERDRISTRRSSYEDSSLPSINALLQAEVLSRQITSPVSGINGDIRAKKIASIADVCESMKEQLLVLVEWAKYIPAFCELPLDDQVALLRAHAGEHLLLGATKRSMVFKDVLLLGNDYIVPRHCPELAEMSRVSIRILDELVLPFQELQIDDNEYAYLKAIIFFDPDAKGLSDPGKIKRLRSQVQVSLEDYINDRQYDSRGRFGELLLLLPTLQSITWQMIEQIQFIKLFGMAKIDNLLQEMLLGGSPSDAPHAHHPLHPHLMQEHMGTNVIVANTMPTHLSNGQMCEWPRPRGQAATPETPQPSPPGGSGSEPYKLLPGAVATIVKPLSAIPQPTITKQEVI
Procedure: First, the m-calpain gene was co-transfected with the HNF-4α gene into HEK293T cells. More specifically, after culturing a total number of 1.3×10^6 HEK293T cells for 4 hours at 37° C. in the presence of 5% CO2 (Petri dish with 60 mm diameter), 5 μg of HNF4α expression plasmid or pcDNA 3.1/His plasmid as a negative control was transfected thereto together with 5 μg of m-calpain expression plasmid using the FuGENE 6 Transfection Reagent (Roche Applied Science). After two days culturing, the cells were washed with cold phosphate buffered saline (−) (hereunder, referred to as “PBS(−)”), suspended in 500 μl of cell lysis buffer (20 mM HEPES, pH 7.5/150 mM NaCl/1 mM EDTA/1% Triton X-100/1 mM phenylmethyl sulfonyl fluoride (PMSF)), and left to stand on ice for 20 mins. Thereafter, the cells were subjected to centrifugation at 15,000 rpm for 20 min at 4° C. to collect the supernatant for use as cell lysate. Subsequently, the collected lysate was added to 18 μl of Protein G Sepharose 4 Fast Flow (Amersham Pharmacia Biotech) that was pretreated with TBS (pH 8.0) containing 0.1% bovine serum albumin, and mixed by inversion for 2 hours at 4° C., followed by centrifugation to collect the supernatant. 0.6 μg of anti-HNF-4α antibody/HNF-4α (C-19) antibody was added to the collected supernatant, and mixed by inversion for 1 hour at 4° C. […]

human IPF-1 = experiment: in vitro protein degradation test of IPF-1 by calpain (Western blotting); format: biochemical; settings: 1 hour at 37° C.
Procedure: Using the IPF-1 expression plasmid, synthesis of IPF-1 protein was carried out in vitro using the TNT T7 Quick Coupled Transcription/Translation System. That is, the IPF-1 expression plasmid was mixed with TNT T7 Quick Master Mix, and then incubated for 1.5 hours at 30° C. in the presence of methionine to synthesize IPF-1.
Protein degradation tests were carried out in vitro by adding μ-calpain or m-calpain to IPF-1, and incubating for 1 hour at 37° C. in the presence of 200 mM Tris-HCl (pH 7.8)/1 mM DTT/6 mM CaCl2. The final concentrations of each calpain in the reaction systems were as follows: 50 units/mL of human μ-calpain; 50 μg/mL of rabbit m-calpain as a protein concentration, and 59 units/mL of rat m-calpain. For a control experiment, IPF-1 was incubated without addition of calpain in the same manner in the presence of calcium. Further, to test for protein degradation in the absence of calcium, a sample was prepared by adding 10 mM of EDTA instead of 6 mM of CaCl2, and incubated in the same manner. The samples after incubation were added to an equal volume of 2×SDS sample buffer, heated for 5 minutes, and subjected to 5-20% SDS-PAGE for separation. Thereafter, Western blotting was carried out to detect IPF-1 using anti-Xpress antibody and anti-IPF1 (PDX-1) antibody/N-18 (Santa Cruz Biotechnology, Inc.). The ECL Western blotting detection kit was used for conducting the detection.
In-vitro protein degradation tests were carried out in the same manner as Example 10, but the lysate of sf-9 cells that coexpressed m-calpain with calpain small subunit 1 was used as m-calpain. The final concentration of the lysate of sf-9 cells that expressed these proteins in the reaction system was 2.33 mg/mL as a protein concentration. The final concentration of rat m-calpain in the reaction system was 59 units/mL. Detection of IPF-1 was performed in the same manner as Example 10, but only anti-IPF-1 antibody/N-18 was used.

binding to HNF-4α (coprecipitation with anti-HNF-4α antibody) (human HNF-4α): coprecipitated
B1: human m-calpain: lysate of sf-9 insect cells coexpressing human m-calpain with calpain small subunit 1; FLAG-tagged, expressed in HEK293T cells, in Example 3 (protein, UniProt P17655 20-700; P04632 1-268, looked up)
Calpain-2 catalytic subunit: SHDRAIKYLNQDYEALRNECLEAGTLFQDPSFPAIPSALGFKELGPYSSKTRGIEWKRPTEICADPQFIIGGATRTDICQGALGDCWLLAAIASLTLNEEILARVVPLNQSFQENYAGIFHFQFWQYGEWVEVVVDDRLPTKDGELLFVHSAEGSEFWSALLEKAYAKINGCYEALSGGATTEGFEDFTGGIAEWYELKKPPPNLFKIIQKALQKGSLLGCSIDITSAADSEAITFQKLVKGHAYSVTGAEEVESNGSLQKLIRIRNPWGEVEWTGRWNDNCPSWNTIDPEERERLTRRHEDGEFWMSFSDFLRHYSRLEICNLTPDTLTSDTYKKWKLTKMDGNWRRGSTAGGCRNYPNTFWMNPQYLIKLEEEDEDEEDGESGCTFLVGLIQKHRRRQRKMGEDMHTIGFGIYEVPEELSGQTNIHLSKNFFLTNRARERSDTFINLREVLNRFKLPPGEYILVPSTFEPNKDGDFCIRVFSEKKADYQAVDDEIEANLEEFDISEDDIDDGFRRLFAQLAGEDAEISAFELQTILRRVLAKRQDIKSDGFSIETCKIMVDMLDSDGSGKLGLKEFYILWTKIQKYQKIYREIDVDRSGTMNSYEMRKALEEAGFKMPCQLHQVIVARFADDQLIIDFDNFVRCLVRLETLFKIFKQLDPENTGTIELDLISWLCFSVL
Calpain small subunit 1: MFLVNSFLKGGGGGGGGGGGLGGGLGNVLGGLISGAGGGGGGGGGGGGGGGGGGGGTAMRILGGVISAISEAAAQYNPEPPPPRTHYSNIEANESEEVRQFRRLFAQLAGDDMEVSATELMNILNKVVTRHPDLKTDGFGIDTCRSMVAVMDSDTTGKLGFEEFKYLWNNIKRWQAIYKQFDTDRSGTICSSELPGAFEAAGFHLNEHLYNMIIRRYSDESGNMDFDNFISCLVRLDAMFRAFKSLDKDGTGQIQVNIQEWLQLTMYS
modifications: FLAG tag
degradation of IPF-1 (human IPF-1; in the absence of calcium (10 mM EDTA instead of CaCl2)): not observed | degradation of IPF-1 (human IPF-1; in the presence of calcium (6 mM CaCl2), Western blotting): observed
